The text below walks through data of publication PMC5519370.

The target of the assay is TgSPT1 Δ158 (Toxoplasma gondii serine palmitoyltransferase 1 with an N-terminal deletion of 158 amino acids) (Toxoplasma gondii). Nature of the assay: SAXS (small-angle X-ray scattering); size exclusion chromatography HPLC mode, Beamline B21 Diamond Light Source; sample concentrated to ~5 mg/ml; Porod volume 150387 Å^3 equivalent to 94 kDa; ab initio envelope compared with a homodimeric homology model.

A word on the stoichiometry N: it is the number of molecules, sites or subunits per partner or assembly. On to “TgSPT1 Δ158 (Toxoplasma gondii serine palmitoyltransferase 1 with an N-terminal deletion of 158 amino acids) (enzyme)”, for which the stoichiometry N stood at 2.
